From patent US20210324359A1, “USE OF GRAM-NEGATIVE LYSIN-ANTIMICROBIAL PEPTIDE (AMP) POLYPEPTIDE CONSTRUCTS IN TREATING ENDOCARDITIS” (priority 2020, published 2021)

Experiments:
[1] = Isoelectric point (pI) of the polypeptides; assay type: physicochemical
Source text: By comparing the sequences and components of the various polypeptides, the effect of a particular structural modification on isoelectric point (a higher pI favors outer membrane penetration) and activity (as assessed by MIC) can be determined.

[2] = test system: carbepenam-resistant clinical isolate WC-453; experiment: MIC in CAA without or with 25% human serum (Table 5); assay type: cell-based, Pseudomonas aeruginosa; settings: for CAA/HuS MIC: CAA supplemented with 25% human serum
Description: MIC values were determined using a modification of the standard broth microdilution reference method defined by the Clinical and Laboratory Standards Institute (CLSI), CLSI. […] Methods for Dilution Antimicrobial Susceptibility Tests for Bacteria That Grow Aerobically; Approved Standard-10th Edition. Clinical and Laboratory Standards Institute, Wayne, Pa.

[3] = test system: P. aeruginosa strain WC-453; experiment: Time-kill assay in HEPES or CAA with 25% human serum (Tables 7, 8); assay type: cell-based, Pseudomonas aeruginosa; settings: for HEPES (Log10 CFU/mL), 1 hr / HEPES (Log10 CFU/mL), 3 hr: 25 mM HEPES pH 7.4; for HEPES (Log10 CFU/mL), 1 hr / HEPES (Log10 CFU/mL), 3 hr / CAA/HuS (Log10 CFU/mL), 1 hr / CAA/HuS (Log10 CFU/mL), 3 hr: lysin 10 μg/ml, WC-453; for CAA/HuS (Log10 CFU/mL), 1 hr / CAA/HuS (Log10 CFU/mL), 3 hr: CAA + 25% human serum
Description: Exponential phase bacteria were then pelleted and resuspended in 1/5 culture volume of 25 mM HEPES, pH 7.4 before a final adjustment to an optical density corresponding to a McFarland value of 0.5. […] All treatments were incubated at 37° C. with aeration. At time points before the addition of lysin (or buffer control) and at 1 hour and 3 hours intervals thereafter, culture samples were removed for quantitative plating on CAA agar plates.

[4] = test system: biofilms formed by P. aeruginosa strain ATCC 17646; settings: strain ATCC 17646 biofilm
Description: (§1) Biofilms are then washed and treated with e.g., a 2-fold dilution series of the lysin in TSBg at e.g., 37° C. for 24 hours. After treatment, wells are washed, air-dried at e.g., 37° C. and stained with e.g., 0.05% crystal violet for 10 minutes.

[5] = test system: outer membrane of P. aeruginosa (CFS 1292); experiment: N-phenyl-1-napthylamine (NPN) uptake assay, outer membrane destabilization (Table 15); assay type: cell-based, Pseudomonas aeruginosa; settings: NPN fluorescence, buffer = 100, lysin 100 μg/well
Description: The ability of gram-negative lysins to destabilize the outer membrane of P. aeruginosa was evaluated through the use of an N-phenyl-1-napthylamine (NPN) uptake assay. […] NPN was added to a final concentration of […]. […] Changes in fluorescence were recorded (excitation 1=350 nm; emission 1=420 nm) over two hours.

[6] = test system: Pseudomonas aeruginosa biofilm; experiment: MBEC in CAA supplemented with […] human serum (Table 14); assay type: cell-based
Description: as §1
(§2) Materials and methods: MICs were determined by broth microdilution in media supplemented with human serum and pulmonary surfactant ([…]®; Myoderm Clinical Supplies). Minimal biofilm eradicating concentrations (MBECs) were determined using standard methods. […] Fluorescence microscopy was performed after LIVE/DEAD staining (ThermoFisher) and TEM was performed.

[7] = test system: Pseudomonas aeruginosa strain CFS-1292 (meropenem resistant); settings: strain CFS-1292; no added cations
Description: The activity of selected GN lysins and constructs in the presence of divalent cations was evaluated, and the impact of divalent cations at physiological concentrations was examined in the MIC assay format.

[8] = test system: carbapenem-resistant P. aeruginosa strains; experiment: Resensitization of carbapenem-resistant strains, combinations with imipenem or meropenem (Tables 18-22); assay type: cell-based, Pseudomonas aeruginosa; settings: for FICI: isolate WC-452
[9] = test system: P. aeruginosa isolates; experiment: MIC against a range of isolates in CAA + […] human serum (Table 11); assay type: cell-based, Pseudomonas aeruginosa
[10] = test system: Pseudomonas aeruginosa strain CFS-1292 (meropenem resistant); experiment: MIC in 25% CAA alone, with […] human serum or […] SURVANTA (Table 13); assay type: cell-based
Description: as §2

[11] = test system: P. aeruginosa; experiment: MIC, modified CLSI broth microdilution in CAA medium without or with […] human serum (Table 4); assay type: cell-based, Pseudomonas aeruginosa; on CAA/HuS MIC: CAA supplemented with 2.5% human serum
Source text: 2015. […] Clinical and Laboratory Standards Institute, Wayne, Pa.

[12] = test system: P. aeruginosa strains; experiment: Checkerboard synergy with meropenem in 25% CAA and […] human serum (Table 16); assay type: cell-based, Pseudomonas aeruginosa; settings: for FICI value (Run #1), with meropenem / FICI value (Run #2), with meropenem: 25% CAA and […] human serum

B1: GN11: lysin obtained from Pseudomonas putida KT2440 (SEQ ID NO: 208) (protein, listed as Pseudomonas putida)
chain: MTYNAGTKPRAETDYLVVHCSATRPSQDIGAADINRWHRAKGWRCIGYHFVIRRNGVVEEGRELDQIGAHVEGHNINSVGICMAGGVTEADINVPENNFTPEQFASLKHLLGELKEKYPSATIQGHRDFPKVAKACPSFDVKPWVAANL
**Q.** With B1 as the molecule, how does the “pI (isoelectric point)” value [1] read?
**A.** 7.3

**Q.** What about the “activity in CAA supplemented with human serum (25%)” value [2] of the same molecule?
**A.** active

**Q.** What about the “CAA MIC” value [2] of the same molecule?
**A.** 32

**Q.** And the “CAA/HuS MIC” value [2]?
**A.** 128

**Q.** And the “HEPES (Log10 CFU/mL), 1 hr” value [3]?
**A.** 6.7 Log10 CFU/mL

**Q.** What about the “HEPES (Log10 CFU/mL), 3 hr” value [3] of the same molecule?
**A.** <3.7 Log10 CFU/mL

B2: GN428: lysin obtained from Escherichia virus CBA120 (SEQ ID NO: 60) (protein, listed as Escherichia virus)
chain: MAILKLGNRGSEVKALQQSLNKIGFSLTADGIFGKATENAVKSVQAGAGLVIDGIAGPKTFYAIRNAGDAHQEHLTEADLVDAARELGVELASMKAVNQVESRGTGFTKTGKIKTLFERHIMYKKVTAKFGQARANALYQLYPTLVNPNSGGYIGGDAELERLQGAIALDEDCAYESASYGLFQIMGFNCQICGYSNAKEMFTDFLTGERAHLLAFVKFIKADANMWKALKNKNWAEFARRYNGPAYAKNQYDTKLAAAYKSFC
**Q.** Which results are given for B2?
**A.** MBEC [4]: 1 µg/mL; % RFU ([5]; 5 minutes): 194 % RFU; % RFU ([5]; 10 minutes): 242 % RFU; % RFU ([5]; 20 minutes): 271 % RFU; % RFU ([5]; 40 minutes): 250 % RFU; % RFU ([5]; 60 minutes): 183 % RFU; % RFU ([5]; 100 minutes): 137 % RFU; MBEC in CAA supplemented with […] human serum [6]: 1 µg/mL; MIC in 25% CAA [7]: 4 µg/mL; resensitization to carbapenems in synergistic combinations ([8]; imipenem (IPM) and meropenem (MEM), carbapenem-resistant isolates): reductions of IPM and MEM MICS to below breakpoint values; FICI ([8]; lysin + imipenem): 0.188; FICI ([8]; lysin + meropenem): 0.188; Antibiotic MIC / Lysin MIC, Alone ([8]; vs. WC-452 (Table 22)): 2; activity against P. aeruginosa isolates in human serum or SURVANTA ([9]; Tables 11 and 12): active against a variety of P. aeruginosa isolates; MIC, CAA + […] Human Serum ([9]; strain CFS 1109 (ATCC 17646)): 1 µg/mL; MIC, CAA + […] Human Serum ([9]; strain CFS 1292): 2 µg/mL; MIC, CAA + […] Human Serum ([9]; strain CFS1539 (PA1)): 1 µg/mL; MIC, CAA + […] Human Serum ([9]; strain CFS 1540 (PA2)): 1 µg/mL; MIC, CAA + […] Human Serum ([9]; strain CFS 1541 (PA3)): 1 µg/mL; MIC, CAA + […] Human Serum ([9]; strain CFS 1557 (PA19)): 4 µg/mL; MIC, CAA + […] Human Serum ([9]; strain CFS 1558 (PA20)): 2 µg/mL; MIC, CAA + […] Human Serum ([9]; strain CFS 1559 (PA21)): 2 µg/mL; MIC, CAA + […] Human Serum ([9]; strain CFS 1560 (PA22)): 2 µg/mL; MIC, CAA + […] Human Serum ([9]; strain CFS 1561 (PA23)): 2 µg/mL; MIC, CAA + […] Human Serum ([9]; strain CFS 1562 (PA24)): 2 µg/mL; MIC, CAA + […] Human Serum ([9]; strain CFS 1596 (PA26)): 1 µg/mL; MIC, CAA + […] Human Serum ([9]; strain CFS 1597 (PA27)): 0.5 µg/mL; MIC, CAA + […] Human Serum ([9]; strain CFS 1669 (PA41)): 2 µg/mL; MIC, CAA + […] Human Serum ([9]; strain CFS 1674 (PA46)): 2 µg/mL; MIC, CAA + […] Human Serum ([9]; strain CFS 1675 (PA47)): 1 µg/mL; MIC, CAA + […] Human Serum ([9]; strain CFS 1766 (ATCC 27853)): 4 µg/mL; MIC in […] Survanta [10]: 4 µg/mL; MIC in human serum ([…]) in CAA [10]: 0.125 µg/mL; activity in human serum and pulmonary surfactant [10]: active in human serum and pulmonary surfactant; 25% CAA MIC ([10]; media alone): 4; bactericidal activity (CFU decrease of 3-Log10, 3 hours after the addition of lysin) ([3]; 10 μg/mL, enumerated lysins in CAA/HuS, general statement for HEPES and CAA/HuS): bactericidal activity; CAA/HuS (Log10 CFU/mL), 1 hr [3]: 5.5 Log10 CFU/mL; CAA/HuS (Log10 CFU/mL), 3 hr [3]: <3.7 Log10 CFU/mL; CAA MIC ([11]; CAA medium, no human serum): 8000 µg/mL; CAA/HuS MIC ([11]; CAA supplemented with […] human serum): 125 µg/mL; synergy with meropenem ([12]; FICI less than or equal to 0.5 = potent synergy): exhibited synergy with meropenem; FICI value (Run #1), with meropenem ([12]; strain CFS 1292): 0.1875; FICI value (Run #2), with meropenem ([12]; strain CFS 1292): 0.219; FICI value (Run #1), with meropenem ([12]; strain CFS 1557 (PA19)): 0.1562; FICI value (Run #2), with meropenem ([12]; strain CFS 1557 (PA19)): 0.198; FICI value (Run #1), with meropenem ([12]; strain CFS 1558 (PA20)): 0.09375; FICI value (Run #2), with meropenem ([12]; strain CFS 1558 (PA20)): 0.135; FICI value (Run #2), with meropenem ([12]; strain CFS 1559 (PA21)): 0.396; FICI value (Run #2), with meropenem ([12]; strain CFS 1560 (PA22)): 0.229; FICI value (Run #2), with meropenem ([12]; strain CFS 1561 (PA23)): 0.323; FICI value (Run #2), with meropenem ([12]; strain CFS 1562 (PA24)): 0.198; FICI value (Run #2), with meropenem ([12]; strain CFS 1766 (ATCC 27853)): 0.156

B3: GN7: lysin obtained from a marine metagenome (SEQ ID NO: 206) (protein)
chain: MTPFDHALELTLGLEGGYSNHLMDRGGETMCGITEAVARRHGWEGEMRDLPIEMVRHIYKVDYWDPLMGDYLGEHNPELAEELFDTAVNCGVGFASKILQKSINVLNRNRTEDIAEDGQIGPQTLKALRDLARRDYDYLLECCKILQGNHYISLAHRDPTQRIFIRGWLTRV
modifications: GOS_4958713 hypothetical protein GOS_4958713, partial [marine metagenome]
**Q.** For B3, which “pI (isoelectric point)” value [1] is on record?
**A.** 5.6

**Q.** What about the “activity in CAA supplemented with human serum (25%)” value [2] of the same molecule?
**A.** active

**Q.** What about the “CAA MIC” value [2] of the same molecule?
**A.** >128

**Q.** And the “CAA/HuS MIC” value [2]?
**A.** 128

**Q.** And the “HEPES (Log10 CFU/mL), 1 hr” value [3]?
**A.** 7.5 Log10 CFU/mL

**Q.** And the “HEPES (Log10 CFU/mL), 3 hr” value [3]?
**A.** 6.2 Log10 CFU/mL

**Q.** And the “CAA/HuS (Log10 CFU/mL), 1 hr” value [3]?
**A.** 7.0 Log10 CFU/mL

**Q.** And the “CAA/HuS (Log10 CFU/mL), 3 hr” value [3]?
**A.** 7.0 Log10 CFU/mL
